Assays:
[1] = biological target: M2-1 fused to the N2 complementation fragment of NanoLuc (human respiratory syncytial virus, strain Long); experiment: split reporter (BiFC, NanoBiT); NanoLuc two-hybrid (N2H) complementation in HEK293T cells, 24 h after transfection; lysates incubated 1 h with 100 µg/ml RNAse A; normalized luminescence ratio (NLR) over control protein pairs
[2] = biological target: M2-1 fused to GFP, expressed by the recombinant virus RSV-M2-1-GFP (human respiratory syncytial virus, strain Long); experiment: co-IP; GFP-Trap beads on lysates of HEp-2 cells infected with RSV-M2-1-GFP, 14 h p.i., without RNAse in the lysis; immunoblot
[3] = biological target: M2-1 fused to GFP, expressed by the recombinant virus RSV-M2-1-GFP (human respiratory syncytial virus, strain Long); experiment: co-IP; GFP-Trap beads on lysates of HEp-2 cells infected with RSV-M2-1-GFP or RSV-GFP (control), 14 h p.i., with RNAse (RNAse A or broad-spectrum nuclease) in the lysis; Tris 10 mM pH 7.5, NaCl 150 mM, IGEPAL CA-630 0.5%; overnight at 4 °C; immunoblot

| Substance | NLR as percent of the signal of the whole PABPC1 [1] [%] | percent of total PABPC1 in the input co-immunoprecipitated [2] [%] | percent of total PABPC1 in the input co-immunoprecipitated [3] [%] |
| --- | --- | --- | --- |
| PABPC1 fragment 492-636 fused to the N1 fragment of NanoLuc (from UniProt P11940 492-636) (domain or fragment) | 50 |  |  |
| cytoplasmic polyA-binding protein 1 (PABPC1), endogenous in HEp-2 cells (from UniProt P11940 1-636) (natural protein) |  | 5.71 | 2.08 |

Source: PMC6813310
